Experimental data published in a protein production outcome set (Wang et al. 2014).

Assay: label from the status in PepcDB records

Sequence | protein production
MTSYPQQPQQTEQYGVQAGEPPLWAPYYGAPIGAAIRRFFKKYTAFSGRASRSEYWWVALALGVIGIVLQILTGILGAAGSTTTSSGTVPGPGAVVGLILIFVFYLAVLIPSIALLVRRLHDGNFSGWLALLGLIPFVGGLAILVFALLPSNPAGQRFDQPTA | failed
MTTAQMSVYFFLQAAAILLVCRLVGMLAKRLGQPQVVGEMIAGVMLGPSLFGLLAPGAQAALFPKQTMDVLYVFAQFGVGMYMFLVGTDFRSDHFRARYRSAMSVSLAGIAVPFLLAFAMCPWLINVEGLFSEKAKLMEASLFLGAAIAITAFPMLARIIHERGLATSPLGTLALTAGAFDDASAWCILAVVLASFGGSWGSAYLAIGGGIGYAVFMIFVGRHLLKRLADHVVPGQPLSNSVLAVVLILFCVSAWAMDAIGIHAVFGGFLLGVCLPRGALTEKLREMLQPFVVVLLLPMFFTYSGLKTQLSVLLQPQIMLAGVAILAASFIGKGVACWAAARTTGENNRDAMAIGALMNARGLMELIIINIGLQAGVIEQGLFSVLVLMAILSTLMATPLFNWIMRRHAHVSDAVPSLQSR | failed
MTTARPAKARNEGQWALGHREPLNANEELKKAGNPLDVRERIENIYAKQGFDSIDKTDLRGRFRWWGLYTQREQGYDGTWTGDDNIDKLEAKYFMMRVRCDGGALSAAALRTLGQISTEFARDTADISDRQNVQYHWIEVENVPEIWRRLDDVGLQTTEACGDCPRVVLGSPLAGESLDEVLDPTWAIEEIVRRYIGKPDFADLPRKYKTAISGLQDVAHEINDVAFIGVNHPEHGPGLDLWVGGGLSTNPMLAQRVGAWVPLGEVPEVWAAVTSVFRDYGYRRLRAKARLKFLIKDWGIAKFREVLETEYLKRPLIDGPAPEPVKHPIDHVGVQRLKNGLNAVGVAPIAGRVSGTILTAVADLMARAGSDRIRFTPYQKLVILDIPDALLDDLIAGLDALGLQSRPSHWRRNLMACSGIEFCKLSFAETRVRAQHLVPELERRLEDINSQLDVPITVNINGCPNSCARIQIADIGFKGQMIDDGHGGSVEGFQVHLGGHLGLDAGFGRKLRQHKVTSDELGDYIDRVVRNFVKHRSEGERFAQWVIRAEEDDLR | not failed
MTTDTGELVRTNQGTSSEVSSETGTAVQTLSVLYGSQTGNAEFLASKIVDKANGQGYAAELMSLDMLTPQEAARKDRLLIVTATHDNGHMPDNAQPFWDQLQSAGSDLFKDVPFAVLAIGDSMYEDFCKAGSDLDERLGKLGGKRILDRLDCDVDYDLTSGKWIRGMLETFKTVVPKKRDNNPEDSTVPGANPAEQPKGTRREPDTATVVEARLLSAPESEKEVWHYELEVSGDSRNYRPGDSLAVIPTNNIELVEDLLGFLGLAGSEVFGEDGKTVRETLQNDYELRLPHLGIVAWLVENLAPDHPVRNLVESGDRNALEDWLWGRDMLDVLQETRTTDVDPGEFLSMLRPLQHRSYSIASSPLADGDRVHLTVSTVQYETAGRRHSGACSGFLQSAAQTKTTIKVFPLPAHEFHLPHDNSADVIMVGPGVGVAPFRGFLRDREVSQARGRNWLFFGDRHEKPSWLYQEEMEELQSNGVLNRLSVAFSRDQQGKVYVQDRIREEGDGIFAWLSGGASVYVCGGKQIAPDIDEALLAVLRSHGAMTPEKAHDYLQSLKSEGRYVKDVY | failed
MTTIDIIILIIIGAGVVAGFMKGFIRQLASILGLVVGLLAAKALYATLAEKLCPAVTDSMTVAQVLAFIVIWIAVPLIFTLVASLLTKAMEAISLGWLNRWLGSGLGALKFLLLTSLVICVIEFIDSDNKLISATKKSESLLYYPMETFAGIFFPAAKNITQQYILDNKDATRRTQ | failed
MTTKPVLVIGGTGKTGRRVVRLLRERGVPARPASRSGEVRFDWLDESTWGPALDGASGVYIVQNDGDPRTRALVRTAVASGVQRLALLSARGVDTPGYYGEDPATSEAFLEGEAAVRESGVDWTVLRPGWFAQNFDEGFFNEGVLAGELRLPAGDGAASWIDVEDIAAVAVAALTEDGHAGRTYELSGPAPLPLAEVLSVIEAAAGRKVRYTPLTTEEFIAELGAQGIPAEEAGLWAAALYPVERGFESKVSDGVRQALGRAPRTFAEYAEAAVAEGAWRD | failed
MTTLEAFAKARSEGRAALIPYLTAGFPSREGFLQAVEEVLPYADLLEIGLPYSDPLGDGPVIQRASELALRKGMSVQGALELVREVRALTEKPLFLMTYLNPVLAWGPERFFGLFKQAGATGVILPDLPPDEDPGLVRLAQEIGLETVFLLAPTSTDARIATVVRHATGFVYAVSVTGVTGMRERLPEEVKDLVRRIKARTALPVAVGFGVSGKATAAQAAVADGVVVGSALVRALEEGRSLAPLLQEIRQGLQRLEANPGLKESSKKPLP | not failed
MTTLSTKQKQFLKGLAHHLNPVVMLGGNGLTEGVLAEIENALNHHELIKVKVAGADRETKQLIINAIVRETKAAQVQTIGHILVLYRPSEEAKIQLPRK | not failed
